In patent US20260035432A1 (PRECIGEN, published 2026):
Positions count from the first letter of the chain named. Names may count otherwise.

B1: Clone 18 (antibody, V domains shown)
VH: EVQLVESGGGLVQPGGSLRLSCSASGFTFSSYAMSWVRQVPGKGLVWISSISRGGTTYYADSVRGRFIISRDNAKNTLYLEMNNLRGEDTAVYYCARYDYDGYYAMDYWGQGTLVTVSS
VL: DIQLTQSPDSLAVSLGERATINCKASPDINSYLSWYQQRPGQPPRLLIHRANRLVDGVPDRFSGSGFGTDFTLTITSLQAEDVAIYYCLQYDEFPYTFGQGTKLEIK
notes: Variable regions fused to mouse constant regions (chimeric mouse IgG1 mAb) for SPR; also called hROR1 VH_18 / hROR1 VL_18
B2: Hum ROR1_05VH_(G4S)3x_VL_14 (antibody, mouse IgG1, V domains shown)
VH: EVQLVESGGGLVQPGGSLRLSCAASGFTFSSYAMSWVRQAPGKGLEWVSSISRGGTTYYPDSVKGRFTISRDNSKNTLYLQMNSLRAEDTAVYYCGRYDYDGYYAMDYWGQGTLVTVSS
VL: DIQMTQSPSSLSASVGDRVTITCKASPDINSYLNWYQQKPGKAPKLLIYRANRLVDGVPSRFSGSGSGTDYTLTISSLQPEDFATYYCLQYDEFPYTFGAGTKVEIK
notes: The name reads as an scFv with a (G4S)3 linker; The method text says variable regions were fused to mouse constant regions (chimeric mouse IgG1); VH/VL are tied by the numbers in the name
B3: Hum ROR1_07VH_(G4S)3x_VL_18 (antibody, mouse IgG1, V domains shown)
VH: B2 VH with M34I, S35I, S49A, S50R, Y58R, P60A, R71A, N73T, N76E, L78A
VL: B1 VL
notes: as for B2
B4: Hum ROR1_18VH_(G4S)3x_VL_16 (antibody, mouse IgG1, V domains shown)
VH: B1 VH
VL: B2 VL with L46V, A100Q
notes: as for B2
B5: Clone 07 (antibody, V domains shown)
VH: B2 VH with M34I, S35I, S49A, S50R, Y58R, P60A, R71A, N73T, N76E, L78A
VL: B2 VL with K24R, L33V, N34A, R53F, V55E, D56S, G66R, Y71F, A100Q
notes: Variable regions fused to mouse constant regions (chimeric mouse IgG1 mAb) for SPR; also called hROR1 VH_07 / hROR1 VL_07
B6: Hum ROR1_18VH_(G4S)3x_VL_07 (antibody, mouse IgG1, V domains shown)
VH: B1 VH
VL: B2 VL with K24R, L33V, N34A, R53F, V55E, D56S, G66R, Y71F, A100Q
notes: as for B2
B7: Hum ROR1_07VH_(G4S)3x_VL_05 (antibody, mouse IgG1, V domains shown)
VH: B2 VH with M34I, S35I, S49A, S50R, Y58R, P60A, R71A, N73T, N76E, L78A
VL: B2 VL with N34S, Y71F, F83I, A100Q, V104L
notes: as for B2
B8: Hum ROR1_18VH_(G4S)3x_VL_04 (antibody, mouse IgG1, V domains shown)
VH: B1 VH
VL: B2 VL with K24Q, R53N, V55E, D56T, Y71F, F83I, A100Q, V104L
notes: as for B2
B9: Hum ROR1_18VH_(G4S)3x_VL_14 (antibody, mouse IgG1, V domains shown)
VH: B1 VH
VL: B2 VL
notes: as for B2
B10: Clone 04 (antibody, V domains shown)
VH: B2 VH with S50A, P60A
VL: B2 VL with K24Q, R53N, V55E, D56T, Y71F, F83I, A100Q, V104L
notes: Variable regions fused to mouse constant regions (chimeric mouse IgG1 mAb) for SPR; also called hROR1 VH_04 / hROR1 VL_04
B11: Hum ROR1_05VH_(G4S)3x_VL_16 (antibody, mouse IgG1, V domains shown)
VH: B2 VH
VL: B2 VL with L46V, A100Q
notes: as for B2
B12: Hum ROR1_07VH_(G4S)3x_VL_16 (antibody, mouse IgG1, V domains shown)
VH: B2 VH with M34I, S35I, S49A, S50R, Y58R, P60A, R71A, N73T, N76E, L78A
VL: B2 VL with L46V, A100Q
notes: as for B2
B13: Hum_design_14_variant5 (antibody, V domains shown)
VH: B2 VH with A24T, V37M, Q39K, W47Y, S49A, P60A, R71V, N73K
VL: B2 VL
notes: Variable regions fused to mouse constant regions (chimeric mouse IgG1 mAb) for SPR; also called hROR1 VH_14-5 / hROR1 VL_14-5
B14: Hum_design_14_variant4 (antibody, V domains shown)
VH: B2 VH with S49A, S74V, K75R, T77I, N83S, A87S, V92M
VL: B2 VL
notes: Variable regions fused to mouse constant regions (chimeric mouse IgG1 mAb) for SPR; also called hROR1 VH_14-4 / hROR1 VL_14-4
B15: Clone 14 (antibody, V domains shown)
VH: B2 VH with A24T, V37M, S49A, P60A, R71V, N73K
VL: B2 VL
notes: Variable regions fused to mouse constant regions (chimeric mouse IgG1 mAb) for SPR; also called hROR1 VH_14 / hROR1 VL_14
B16: Clone 16 (antibody, V domains shown)
VH: B2 VH with S49A, P60D, D61P, S62K, V63F, K64Q, G65D, F67A, R71A, L78A
VL: B2 VL with L46V, A100Q
notes: Variable regions fused to mouse constant regions (chimeric mouse IgG1 mAb) for SPR; also called hROR1 VH_16 / hROR1 VL_16
B17: Clone 05 (antibody, V domains shown)
VH: B2 VH
VL: B2 VL with N34S, Y71F, F83I, A100Q, V104L
notes: Variable regions fused to mouse constant regions (chimeric mouse IgG1 mAb) for SPR; also called hROR1 VH_05 / hROR1 VL_05
B18: Hum ROR1_14VH_(G4S)3x_VL_16 (antibody, mouse IgG1, V domains shown)
VH: B2 VH with A24T, V37M, S49A, P60A, R71V, N73K
VL: B2 VL with L46V, A100Q
notes: as for B2
B19: Hum_design_14_variant3 (antibody, V domains shown)
VH: B2 VH with S49A, P60A
VL: B2 VL with Y71F, F83I, A100G
notes: Variable regions fused to mouse constant regions (chimeric mouse IgG1 mAb) for SPR; also called hROR1 VH_14-3 / hROR1 VL_14-3
B20: Murine ROR1_v2 binding domain (VL and VH of MurineROR1_v2 (VL-VH)) (antibody, V domains shown)
VH: EVKLVESGGGLVKPGGSLKLSCAASGFTFSSYAMSWVRQIPEKRLEWVASISRGGTTYYPDSVKGRFTISRDNVRNILYLQMSSLRSEDTAMYYCGRYDYDGYYAMDYWGQGTSVTVSS
VL: DVQITQSPSSLYASLGERVTITCKASPDINSYLSWFQQKPGKSPKTLIYRANRLVDGVPSRFSGGGSGQDYSLTINSLEYEDMGIYYCLQYDEFPYTFGGGTKLEMK
notes: also called Murine ROR1_v2 VH; murine ROR1 scFv

Key:
[1] = biological target: Signal peptide Ig Kappa, Stalk CD8α; assay: flow cytometry of T cells nucleofected with the CAR construct, Day 1, Protein L-biotin + SA-APC against CD3-FITC; the filing reports it as CAR surface expression (legend: the short CD8α stalk does not permit surface expression)
[2] = biological target: Signal peptide CD8α, Stalk CD8α; assay: as above
[3] = biological target: Signal peptide mIgVH, Stalk CD8α; assay: as above
[4] = biological target: Signal peptide CD28, Stalk CD8α; assay: as above
[5] = biological target: T1, Extracellular domain (ECD) of ROR1 fused to human Fc region (UniProt Q01973 30-406, limits assumed); assay: SPR, Biacore 3000; ROR1 ECD-human Fc on CM5 chip, antibody in solution
T1 construct: extracellular domain; also called ROR1-Fc; ROR1-FC; not shown: human Fc region
T1 sequence (Q01973 30-406 limits assumed): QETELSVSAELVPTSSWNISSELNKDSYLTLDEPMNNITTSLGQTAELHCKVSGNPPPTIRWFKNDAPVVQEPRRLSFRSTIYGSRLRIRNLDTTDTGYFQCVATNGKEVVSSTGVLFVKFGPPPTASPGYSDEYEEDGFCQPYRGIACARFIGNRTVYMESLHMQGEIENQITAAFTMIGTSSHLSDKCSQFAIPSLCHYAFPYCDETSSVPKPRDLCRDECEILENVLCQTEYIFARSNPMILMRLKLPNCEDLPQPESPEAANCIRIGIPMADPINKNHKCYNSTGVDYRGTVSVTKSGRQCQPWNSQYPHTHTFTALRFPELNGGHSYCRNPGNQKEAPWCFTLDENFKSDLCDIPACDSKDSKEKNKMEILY
Method: Different concentrations of humanized antibodies were injected in solution phase and data was analyzed using BIAevaluation to calculate Kd of the antibodies.

[6] = biological target: Extracellular domain (ECD) of ROR1 fused to human Fc region (UniProt Q01973); assay: SPR, Biacore 3000; ROR1 ECD-human Fc on CM5 chip, antibody in solution; ROR1 ECD-human Fc on the chip per paragraph 451; same number stands under ROR1-His in Table 9
Chain of Extracellular domain (ECD) of ROR1 fused to human Fc region (UniProt Q01973) (Q01973 30-406 limits assumed): as above

[7] = biological target: Extracellular domain (ECD) of ROR1 fused to human Fc region (UniProt Q01973); assay: ROR1-Fc affinity of the construct's binding domain; method not given
[8] = biological target: T2, ROR1-His (UniProt Q01973 30-403, limits assumed); assay: ROR1-His affinity of the construct's binding domain; method not given
T2 construct: The construct is described nowhere; not shown: His tag
T2 sequence (Q01973 30-403 limits assumed): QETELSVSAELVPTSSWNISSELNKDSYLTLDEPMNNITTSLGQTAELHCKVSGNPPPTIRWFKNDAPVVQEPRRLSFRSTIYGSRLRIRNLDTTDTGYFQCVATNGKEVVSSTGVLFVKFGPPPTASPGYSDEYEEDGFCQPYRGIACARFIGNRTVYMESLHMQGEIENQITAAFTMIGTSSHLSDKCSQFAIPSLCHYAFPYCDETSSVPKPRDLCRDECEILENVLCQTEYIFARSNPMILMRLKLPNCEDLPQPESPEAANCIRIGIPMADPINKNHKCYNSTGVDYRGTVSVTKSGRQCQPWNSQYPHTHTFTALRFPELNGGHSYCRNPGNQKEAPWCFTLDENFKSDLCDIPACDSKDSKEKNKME

[9] = biological target: Extracellular domain (ECD) of ROR1 fused to human Fc region (UniProt Q01973); assay: SPR, Biacore 3000; ROR1 ECD-human Fc on CM5 chip, antibody in solution
[10] = biological target: T2, ROR1-His; assay: ROR1-His affinity of the construct's binding domain; method not given; ROR1-His column, not ROR1-Fc (2.31E-08)

Molecule	Kd [5] [nM]	Kd [7] [nM]	Kd [8] [nM]	Kd [9] [nM]	further results
Protein L-biotin	–	–	–	–	fraction in quadrant Q6 (Protein L-biotin-SA-APC+, CD3-FITC+) [1]: 2.53; fraction in quadrant Q6 (Protein L-biotin-SA-APC+, CD3-FITC+) [2]: 1.88; fraction in quadrant Q6 (Protein L-biotin-SA-APC+, CD3-FITC+) [3]: 2.13; fraction in quadrant Q6 (Protein L-biotin-SA-APC+, CD3-FITC+) [4]: 2.6
B1	12.7	–	–	–	–
B2	–	0.193	0.355	–	Kd [6]: 0.355 nM
B3	11.7	–	–	–	–
B4	1.6	–	–	–	–
B5	~90	–	–	–	–
B6	3.87	–	–	–	–
B7	7.16	–	–	–	–
B8	–	0.271	0.372	0.372	–
B9	–	0.201	0.209	0.209	–
B10	~55	–	–	–	–
B11	–	0.273	0.337	0.337	–
B12	4.08	–	–	–	–
B13	4.52	–	–	–	–
B14	–	0.284	0.408	0.408	–
B15	–	–	1.45	1.45	–
B16	3.03	–	–	–	–
B17	–	35	37.4	35	–
B18	131	–	–	–	–
B19	–	0.959	1.3	1.3	–
B20	–	23.1	–	–	Kd [10]: 70.7 nM
